Test results taken from US7638284B2, “Immunoglobulin A inducing protein and uses therefor” (The Curators of the University of Missouri, priority 2000, dated 2009).

Tested on: IGIP transcripts
Experiment: RT-PCR of IGIP transcripts in stimulated monocyte derived dendritic cells
Type: cell-based
Conditions: human monocyte derived dendritic cells
Experimental: PBMCs were labeled with anti-CD14 microbeads at 4° C. for 45 minutes, washed three times in sorting buffer. Pure CD14+blood monocytes were then separated by AutoMACS, and cultured at 37° C. for 6 days in cRPMI with 1400 U/ml Leukine (rhGM-CSF) and 10 ng/ml rhIL-4. Non-adherent cells were collected at day six, and purity of dendritic cells was determined by flow cytometry.
Enriched dendritic cell cultures were stimulated with rhCD40L, Pam3CSK, Poly I:C, LPS, CpG DNA, or PMA and Ionomycin for 0, 12, 18, 24, 48, and 72 hours. Total RNA was extracted from harvested cells and treated with DNase to remove any potential contaminating DNA. IGIP was amplified by RT-PCR.
Human dendritic cells (DC) were derived from peripheral blood monocytes by culturing in GM-CSF and IL-4 for 6-7 days. IGIP transcripts were detected by RT-PCR in total RNA from approximately 10^6 monocyte derived DC (mDC) following either Toll-like receptor (TLR) binding or CD40 ligation.

B1: CD40L: rhCD40L used to stimulate dendritic cell cultures (protein, UniProt P29965 113-261, looked up)
CD40 ligand, soluble form: MQKGDQNPQIAAHVISEASSKTTSVLQWAEKGYYTMSNNLVTLENGKQLTVKRQGLYYIYAQVTFCSNREASSQAPFIASLCLKSPGRFERILLRAANTHSSAKPCGQQSIHLGGVFELQPGASVFVNVTDPSQVSHGTGFTSFGLLKL
  loss of IGIP transcripts post stimulation: no longer detectable after 48 hours
  time after stimulation at which IGIP was detectable: approximately 12 hours
  time of peak IGIP expression: 24 h
